pKd: −log10 of the molar value.
Target: hnRNP A1 internal_change (UniProt P09651)
Assay: SPR
Conditions: hnRNP A1 immobilized; very hard to regenerate; called non-special binding; phosphorothioate at all 30 linkages (stereorandom); SPR: 10 mM PBS (138 mM NaCl, 2.7 mM KCl, 10 mM Na2HPO4, 1.76 mM KH2PO4, 0.05% Tween-20), pH 7.4, 25 C, aptamer 0.39-50 nM; BLI: biotinylated aptamer on SA …

Chain of hnRNP A1 internal_change (P09651 other isoform, or with tags, fused parts or gaps): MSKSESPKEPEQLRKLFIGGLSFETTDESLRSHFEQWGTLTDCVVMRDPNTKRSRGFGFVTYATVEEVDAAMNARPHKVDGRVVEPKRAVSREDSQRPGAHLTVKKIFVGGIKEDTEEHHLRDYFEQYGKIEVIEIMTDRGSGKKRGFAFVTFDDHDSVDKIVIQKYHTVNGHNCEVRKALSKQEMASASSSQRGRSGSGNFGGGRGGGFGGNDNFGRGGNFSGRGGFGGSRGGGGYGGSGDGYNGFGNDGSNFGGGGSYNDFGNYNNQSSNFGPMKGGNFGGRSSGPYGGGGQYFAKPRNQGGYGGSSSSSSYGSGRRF

TGTGGCGAGGTAGGTGGGGTGTGTGTGTATC [WW-20]
pKd: 10.85

From PMC8273494
